Reference: the Immune Epitope Database (IEDB)

Legend:
Experiment in all cases: IEDB peptide-MHC binding, purified MHC/competitive/radioactivity; filed as Kd, often an IC50 or EC50 that approximates it; ≥ and ≤ were set here for values at or beyond the usual limits of such assays
[1] = biological target: HLA-A*68:01
[2] = biological target: HLA-A*11:01
[3] = biological target: HLA-A*31:01
[4] = biological target: HLA-A*03:01
[5] = biological target: HLA-A*33:01
[6] = source organism: Dengue virus 1 Brazil/97-11/1997
[7] = source organism: Vaccinia virus WR
[8] = source organism: SARS coronavirus Tor2
[9] = source organism: Dengue virus 2 Jamaica/1409/1983
[10] = source organism: Lassa virus Josiah
[11] = source organism: Dengue virus 4 Philippines/H241/1956
[12] = source organism: Mammarenavirus juninense
[13] = source organism: Lymphocytic choriomeningitis virus (strain Armstrong)
[14] = source organism: Mammarenavirus machupoense
[15] = source organism: Dengue virus 3 Martinique/1243/1999
[16] = source organism: Mammarenavirus lassaense
[17] = source organism: Dengue virus 2 Peru/IQT2913/1996
[18] = source organism: Mammarenavirus brazilense
[19] = source organism: Dengue virus 3 Sri Lanka/1266/2000
[20] = source organism: Dengue virus 4 Dominica/814669/1981

Sequence	Kd [2, 7]	Kd [1, 7]	Kd [3, 7]	Kd [4, 7]	Kd [5, 7]	also measured
CTSQILLMR						Kd [1, 6]: 16.7 nM
YSRVNHAKY	≥ 42200 nM	1190 nM	≥ 73700 nM	1530 nM	≥ 77700 nM	
SMQGAVDINR						Kd [2, 8]: 1160 nM; Kd [1, 8]: 142 nM; Kd [3, 8]: 188 nM; Kd [4, 8]: 2290 nM; Kd [5, 8]: 470 nM
KLDDVEKEK	292 nM	≥ 59900 nM	4770 nM	404 nM	≥ 77700 nM	
RASTTENAAY	564 nM	4630 nM	2090 nM	13400 nM	≥ 70000 nM	
PLHILASNKK	3420 nM	≥ 21900 nM	7700 nM	1480 nM	≥ 70000 nM	
FFLMVLLIPE						Kd [5, 6]: 208 nM
GSLITCAKFK						Kd ([2]; source organism: Dengue virus 1 Nauru/West Pac/1974): 244 nM
KKNGAIKVLR						Kd [3, 6]: ≥ 70000 nM
CIFAFIDFSK	9.02 nM	46.1 nM	136 nM	18.4 nM	64.6 nM	
ENKAWLVHR						Kd ([5]; source organism: Dengue virus 2 16681-PDK53): 7 nM
SFKLILAEY	13500 nM	≥ 26000 nM	681 nM	≥ 76900 nM	11700 nM	
FTDPASIAAR						Kd [1, 9]: 25.6 nM; Kd [5, 9]: 125 nM
KQIANQFNK						Kd [2, 8]: 138 nM; Kd [1, 8]: 9990 nM; Kd [3, 8]: 24.2 nM; Kd [4, 8]: 108 nM; Kd [5, 8]: ≥ 77700 nM
ILQLIRHGR	725 nM	75.2 nM	0.975 nM	1430 nM	2.62 nM	
KSINKVYGR	2.38 nM	15.4 nM	1.04 nM	368 nM	3410 nM	
DQYKDLCHMH						Kd [2, 10]: ≥ 69700 nM; Kd [1, 10]: ≥ 70100 nM; Kd [3, 10]: ≥ 70000 nM; Kd [4, 10]: ≥ 70000 nM; Kd [5, 10]: ≥ 70000 nM
GVTSSGAIYK	45.9 nM	81.3 nM	1350 nM	181 nM	≥ 10000 nM	
MLFTSTNDK	20 nM	26.2 nM	18400 nM	5.47 nM	≥ 77700 nM	
QLLRLMADK	349 nM	≥ 21900 nM	2570 nM	61.9 nM	≥ 46200 nM	
SSSVDVDIY	≥ 43700 nM	2950 nM	2730 nM	≥ 65300 nM	≥ 72700 nM	
ALFMYYAKR	66.1 nM	943 nM	0.449 nM	12.3 nM	32.5 nM	
ILKRWGTIK						Kd [4, 9]: 14.2 nM

Sequence	Kd [2, 7]	Kd [1, 7]	Kd [3, 7]	Kd [4, 7]	Kd [5, 7]	also measured
LFHGGEPIK	766 nM	5110 nM	≥ 77900 nM	719 nM	≥ 77700 nM	
RVYADPMALK						Kd [2, 11]: 90.3 nM; Kd [1, 11]: 16.1 nM; Kd [4, 11]: 6.98 nM
RFVEELLHR	3450 nM	227 nM	19.7 nM	2180 nM	686 nM	
GFKNGSRHSH						Kd [2, 12]: ≥ 42700 nM; Kd [1, 12]: 2960 nM; Kd [3, 12]: 882 nM; Kd [4, 12]: 14400 nM
TIIGRRLQR						Kd [1, 11]: 617 nM; Kd [5, 11]: 416 nM
NACSANNSHH						Kd [2, 13]: ≥ 69700 nM; Kd [1, 13]: 4710 nM; Kd [3, 13]: ≥ 70000 nM; Kd [4, 13]: ≥ 70000 nM; Kd [5, 13]: ≥ 70000 nM
RSKQKIGDLR	14000 nM	1300 nM	48.3 nM	3830 nM	12700 nM	
NSKYSYELY	10400 nM	10.2 nM	≥ 51100 nM	≥ 33000 nM	≥ 46700 nM	
NMVSDTIMKR	120 nM	92 nM	307 nM	4180 nM	827 nM	
FLRSIAMLK	213 nM	107 nM	153 nM	2.04 nM	611 nM	
VMNFIPIIY	60.5 nM	8850 nM	≥ 20900 nM	58.7 nM	≥ 77700 nM	
YLLVKWIRK	84 nM	≥ 35200 nM	285 nM	7.5 nM	5200 nM	
YFWQKKKQR						Kd [3, 6]: 2220 nM; Kd [5, 6]: 98.2 nM
TAVAKCNQNH						Kd [2, 14]: ≥ 69700 nM; Kd [1, 14]: ≥ 70100 nM; Kd [3, 14]: ≥ 70000 nM; Kd [4, 14]: ≥ 70000 nM; Kd [5, 14]: ≥ 68800 nM
ITGNNIILSK	0.713 nM	7.62 nM	2460 nM	3.51 nM	2000 nM	
YTNEIIGYK						Kd [2, 8]: 2.56 nM; Kd [1, 8]: 2.24 nM; Kd [3, 8]: 937 nM; Kd [4, 8]: 4.97 nM; Kd [5, 8]: 414 nM
LTYQNKVVR						Kd [1, 9]: 46.1 nM; Kd [3, 9]: 11.3 nM
STIANSNIIK	0.545 nM	16.1 nM	1130 nM	251 nM	19500 nM	
ASTISWMMK	0.346 nM	588 nM	1820 nM	31.5 nM	≥ 38900 nM	
HLKCRLRMDK						Kd [4, 9]: 119 nM
MSTYGWNIVK						Kd [1, 15]: 6.17 nM
RCHDHYLCRH						Kd [2, 13]: ≥ 69700 nM; Kd [1, 13]: ≥ 70100 nM; Kd [3, 13]: 14400 nM; Kd [4, 13]: ≥ 46800 nM; Kd [5, 13]: ≥ 70000 nM
FLAVFQSATK						Kd [2, 8]: 1610 nM; Kd [1, 8]: 8.81 nM; Kd [3, 8]: 10800 nM; Kd [4, 8]: 34.3 nM; Kd [5, 8]: ≥ 22400 nM

Sequence	Kd [2, 7]	Kd [1, 7]	Kd [3, 7]	Kd [4, 7]	Kd [5, 7]	also measured
EATQLATLR						Kd [1, 15]: 15.9 nM; Kd [5, 15]: 94.7 nM
NVFKAMETFK	13.7 nM	1.32 nM	63 nM	27.2 nM	234 nM	
QQWIQFMMSR						Kd [2, 8]: 7800 nM; Kd [1, 8]: 6640 nM; Kd [3, 8]: 127 nM; Kd [4, 8]: 12500 nM; Kd [5, 8]: 1450 nM
FVNEKYCIIK	226 nM	275 nM	6150 nM	≥ 48600 nM	3920 nM	
NKKPRLCTR						Kd [5, 15]: 3910 nM
DSALTLHWFR						Kd [1, 11]: 13.1 nM; Kd [5, 11]: 3.27 nM
LVKSYSLIR	1490 nM	816 nM	18.4 nM	15600 nM	1690 nM	
LFYTFAISY	≥ 20100 nM	≥ 43300 nM	≥ 77900 nM	≥ 48400 nM	≥ 77700 nM	
VSLVKKNKKR	6450 nM	≥ 47800 nM	324 nM	≥ 30500 nM	6890 nM	
TYLGPQFCK						Kd [2, 16]: 13.3 nM; Kd [1, 16]: 32.3 nM; Kd [3, 16]: 5080 nM; Kd [4, 16]: 156 nM; Kd [5, 16]: 310 nM
GVLARWGTFK						Kd [2, 15]: 74.4 nM; Kd [4, 15]: 5.23 nM
MQGAVDINR						Kd [2, 8]: 631 nM; Kd [1, 8]: 344 nM; Kd [3, 8]: 412 nM; Kd [4, 8]: ≥ 23100 nM; Kd [5, 8]: ≥ 37400 nM
MVGLLSNSPH						Kd [2, 12]: ≥ 41400 nM; Kd [1, 12]: 661 nM; Kd [3, 12]: 2890 nM; Kd [4, 12]: ≥ 30000 nM; Kd [5, 12]: 4280 nM
ELYDTSPTKR	10500 nM	1.52 nM	1850 nM	756 nM	142 nM	
TVMAFHLTTR						Kd [2, 17]: 108 nM; Kd [1, 17]: 12.2 nM; Kd [3, 17]: 1.57 nM; Kd [5, 17]: 8.12 nM
RVPSHLAHR						Kd [3, 15]: 0.845 nM
AAQRRGRIGR						Kd [3, 11]: 2.16 nM
IFVSLVKKNK	1860 nM	56.3 nM	69.1 nM	365 nM	55 nM	
ATVVIGTSK						Kd [1, 8]: 101 nM; Kd [3, 8]: 1320 nM; Kd [5, 8]: ≥ 77700 nM
ILKINSVKY	16200 nM	1820 nM	1310 nM	831 nM	12900 nM	
PLFDFVNEK	413 nM	222 nM	1220 nM	1940 nM	5520 nM	
KAGQNIRLSH						Kd [2, 18]: 12800 nM; Kd [1, 18]: ≥ 70100 nM; Kd [3, 18]: 5260 nM; Kd [4, 18]: 1680 nM; Kd [5, 18]: ≥ 70000 nM
SLRETACLGK						Kd [4, 6]: 8.06 nM

Sequence	Kd [2, 7]	Kd [1, 7]	Kd [3, 7]	Kd [4, 7]	Kd [5, 7]	also measured
VFGSTMNNK						Kd [2, 8]: 2510 nM; Kd [1, 8]: 4460 nM; Kd [3, 8]: 2630 nM; Kd [4, 8]: 4340 nM; Kd [5, 8]: ≥ 43700 nM
GMDYEEYKSK	249 nM	≥ 21100 nM	1690 nM	29.7 nM	≥ 36000 nM	
YAKKFKTGMH						Kd [2, 12]: ≥ 69700 nM; Kd [1, 12]: ≥ 70100 nM; Kd [3, 12]: ≥ 28200 nM; Kd [4, 12]: ≥ 70000 nM; Kd [5, 12]: ≥ 29200 nM
KIFSEVTPK						Kd ([4]; source organism: Homo sapiens): 10 nM
KLVKSLVDK	73.4 nM	≥ 77700 nM	≥ 41300 nM	34.5 nM	≥ 77700 nM	
HYDQENPYR						Kd [5, 11]: 7870 nM
AIKVLRGFKK						Kd [2, 6]: 817 nM
KNKAWMVHR						Kd [3, 15]: 1.18 nM
TMPLVMAWR						Kd [3, 11]: 8.48 nM; Kd [5, 11]: 6.43 nM
DVISRRDQR						Kd [1, 6]: 66.3 nM; Kd [5, 6]: 68.2 nM
VLAFITFLR						Kd [1, 11]: 8.39 nM; Kd [3, 11]: 4.41 nM; Kd [4, 11]: 267 nM; Kd [5, 11]: 70.4 nM
KATLTEGVYR						Kd [3, 11]: 76 nM
NTNLIKCSDH						Kd [3, 18]: ≥ 37500 nM; Kd [5, 18]: ≥ 60300 nM
RNKKPRLCTR						Kd [3, 15]: 92.6 nM
EITAEWLWR						Kd [1, 19]: 114 nM; Kd [5, 19]: 11.4 nM
GTVMDIISRK						Kd [2, 15]: 47.6 nM
FVCRRTFVDR						Kd [3, 6]: ≥ 70000 nM; Kd [5, 6]: 65.2 nM
QVYFESFVR						Kd [2, 13]: 54.8 nM
MTLMKGASR						Kd [1, 20]: 52.3 nM; Kd [3, 20]: 30.5 nM; Kd [5, 20]: 11.6 nM
QMWTLMYFHR						Kd [3, 9]: 1.86 nM; Kd [5, 9]: 35.3 nM
EMGANFRADR						Kd [3, 6]: ≥ 70000 nM
LTVCYVLTGR						Kd [1, 9]: 6.43 nM
